These results are taken from patent EP4567818A1 (Nanjing GenScript Biotech Co., Ltd., dated 2025).

The term EC50 denotes the concentration that produces a half-maximal response.

Assay [1] has as its target T1, TNFRSF9 protein (also referred to as CD137 protein) (Homo sapiens (Human), UniProt Q07011 24-186).
T1 construct: also called recombinant TNFRSF9 protein
Put plainly: ELISA on coated TNFRSF9, CHO-S expression supernatant diluted 100-fold. (In general: In an ELISA, binding on a coated surface is turned into a signal by an enzyme label.)

The target of assay [2] is T1, TNFRSF9 protein (also referred to as …). Put plainly: indirect ELISA, purified antibody on coated recombinant TNFRSF9 (0.5 ug/ml).

B1: rabbit monoclonal antibody 4C2-WTH before humanization (antibody, human IgG1, V domains shown)
VH: QSVEESGGRLVTPGTPLTLTCTVSGFSLGTFPIGWVRQAPGSGLEWIGIFNTDGSAAYASWARGRFTVFKNSTTVDLKMTSPTTEDTATYFCARINADYSGWYFGIWGPGTLVTVSS
VL: EMTQTPASVEVAVGGTVTIKCQASQSIYSYLAWYQQKPGQPPKPLIYEASKTPSGVPSRFKGSGSGTEYTLTISGVQCEDAATYYCQKGYSVSNVAFGGGTEVVVKR
notes: As tested it is a chimera: the original rabbit variable regions with the human IgG1 constant region, expressed from pcDNA3.4 in CHO-S cells; also called wild-type antibody; anti-CD137 rabbit antibody
On to B1, for which the “OD450 (100-fold dilution)” value in assay [1] worked out at 3.33 OD450. In addition, the EC50 in assay [2] is 3.8 ng/mL.
